We go through one molecule from publication PMC9478674 (Proceedings of the National Academy of Sciences of the …, 2022).

The experiment addresses T1, KaiC S431E;T432A (KaiC-EA) (UniProt Q79PF4 1-519, S431E | T432A).
T1 sequence (looked up): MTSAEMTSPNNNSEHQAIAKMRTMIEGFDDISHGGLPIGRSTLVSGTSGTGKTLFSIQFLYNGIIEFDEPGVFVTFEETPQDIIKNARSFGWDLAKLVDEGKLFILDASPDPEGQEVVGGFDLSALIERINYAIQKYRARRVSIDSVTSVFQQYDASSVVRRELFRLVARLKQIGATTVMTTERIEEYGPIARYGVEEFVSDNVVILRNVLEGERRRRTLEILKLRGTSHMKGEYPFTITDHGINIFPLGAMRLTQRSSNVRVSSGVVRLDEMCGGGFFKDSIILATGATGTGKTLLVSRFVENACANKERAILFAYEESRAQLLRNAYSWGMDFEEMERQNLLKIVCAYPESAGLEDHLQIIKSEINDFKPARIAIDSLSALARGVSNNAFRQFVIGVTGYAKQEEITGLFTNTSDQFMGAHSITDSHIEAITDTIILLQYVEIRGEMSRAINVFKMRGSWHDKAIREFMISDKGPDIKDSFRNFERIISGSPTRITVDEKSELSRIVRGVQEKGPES
Nature of the experiment: co-IP.

B1: wildtype KaiB-FLAG (natural protein, UniProt Q79PF5 1-102, looked up)
chain: MSPRKTYILKLYVAGNTPNSVRALKTLKNILEVEFQGVYALKVIDVLKNPQLAEEDKILATPTLAKVLPLPVRRIIGDLSDREKVLIGLDLLYGELQDSDDF
For B1, the binding result was “binds”.
